Test [1] has as its target Human DNAJB6b (human) (UniProt O75190). The test is described as follows: mass photometry; dissociation kinetics: 34 μM non-labeled JB6 diluted to 50 nM at time zero, 22 and 37 °C; total micelle mass (N > 2) in 60 s of data collection against time.
Test [2] has the same target. As to the kind of experiment: mass photometry; JB6 equilibrated at different concentrations (1 to 100 μM), 20 mM NaP, 0.2 mM EDTA, pH 8.0, room temperature; samples above 200 nM diluted to 200 nM less than a minute before a 60 s measurement; also 5 μM JB6 with 0-1.25 M NaCl.

Values joined by “and” are separate entries in the source; they are usually repeats but may differ in a detail not shown here. Equal entries are not always repeated.

Chain of Human DNAJB6b, O75190-2 1-241 (natural protein; other documents disagree on this pair) (O75190 other isoform, or with tags, fused parts or gaps): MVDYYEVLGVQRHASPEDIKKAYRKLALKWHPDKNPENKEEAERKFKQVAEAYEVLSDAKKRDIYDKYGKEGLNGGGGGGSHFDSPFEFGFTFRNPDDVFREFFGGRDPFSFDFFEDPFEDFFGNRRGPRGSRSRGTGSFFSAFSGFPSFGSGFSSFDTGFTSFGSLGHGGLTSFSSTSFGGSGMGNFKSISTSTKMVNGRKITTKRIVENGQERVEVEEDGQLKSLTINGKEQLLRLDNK

Substance “Human DNAJB6b, O75190-2 1-241 (natural protein; other documents disagree on this pair)” gave a time scale of micelle dissociation at 37 °C with Human DNAJB6b (human) [1] of 20 min. In the test with Human DNAJB6b (human) [2], the stoichiometry N was 20 and 40.

For orientation: stoichiometry N means a count of units in the complex or per binding partner.

The values are drawn from paper PMC12488921.
